Test results: patent US20220041715A1
Read-outs that look alike come from different tables or passages of the source.

Experiments:
[1] = target: SARS-CoV-2 receptor binding domain (RBD) (SARS-CoV-2) (UniProt P0DTC2); experiment: ELISA
[2] = target: SARS-CoV-2 spike S1 (SARS-CoV-2) (UniProt P0DTC2); experiment: ELISA
[3] = target: SARS CoV RBD (SARS-CoV) (UniProt P59594); experiment: ELISA
[4] = target: HCoV-229E S1 (HCoV-229E) (UniProt P15423); experiment: ELISA
[5] = target: MERS CoV S1 (MERS CoV) (UniProt K9N5Q8); experiment: ELISA
[6] = target: SARS-CoV-2 receptor binding domain (RBD) (SARS-CoV-2) (UniProt P0DTC2); experiment: ELISA; remark: listed apart in the source
[7] = target: HCoV-NL63 S1 (HCoV-NL63) (UniProt Q6Q1S2); experiment: ELISA
[8] = target: SARS-CoV-2 receptor binding domain (RBD) (SARS-CoV-2) (UniProt P0DTC2); experiment: RBD:ACE2 blocking ELISA (RBD coated, ACE2-His)
[9] = target: SARS-CoV-2 spike on GFP reporter pseudotype virus (Wuhan-Hu-1) (SARS-CoV-2) (UniProt P0DTC2); experiment: cell-based or functional assay

| Substance | EC50 [1] [µg/mL] | EC50 [2] [µg/mL] | peak OD signal [2] [OD] | EC50 [3] [µg/mL] | EC50 [4] [µg/mL] | EC50 [5] [µg/mL] | EC50 [6] [µg/mL] | peak OD signal [6] [OD] | EC50 [7] [µg/mL] | IC50 [8] [µg/mL] | CoV-2 pseudotype neutralization IC50 [9] [µg/mL] |
| --- | --- | --- | --- | --- | --- | --- | --- | --- | --- | --- | --- |
| IVIG (Gamunex; Grifols) (antibody) | 1250 | 1410 | 1.99 | 1280 | 96 | 1330 | 1270 | 2.26 | 140 | – | – |
| rCIG (recombinant coronavirus-2 immune globulin; recombinant anti-coronavirus 19 hyperimmune gammaglobulin) (antibody) | – | 0.092 | – | 0.6 | – | – | 0.1 | – | – | 2.2 | 0.43 |
